Measured values: PMC8217354

Target: T1, N-SpTad2 (Schizosaccharomyces pombe, UniProt O94642 1-202)
T1 sequence: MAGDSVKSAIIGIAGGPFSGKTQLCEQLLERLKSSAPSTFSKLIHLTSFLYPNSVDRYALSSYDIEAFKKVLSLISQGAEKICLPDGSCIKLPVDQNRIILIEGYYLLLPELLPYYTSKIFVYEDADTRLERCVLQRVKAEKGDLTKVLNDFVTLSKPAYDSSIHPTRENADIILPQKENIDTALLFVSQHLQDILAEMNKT
Experiment: EMSA

B1: tRNAAla (structured_RNA)
RNA: GGGCGUGUGGCGUAGUCGGUAGCGCGCUCCCUUAGCAUGGGAGAGGUCUCCGGUUCGAUUCCGGACUCGUCCACC
binding result: no binding
